From patent US20240287172A1, “PROTEIN BINDERS TO IRHOM2 EPITOPES” (SCIRHOM GMBH, priority 2019, published 2024)
Where a chain is given by its changes, count along the chain named.

B1: antibody 22 (antibody, V domains shown)
VH: QVTLKESGPGILQPSQTLSLTCSFSGFSLSTFGMGVGWIRQPSGKGLEWLAHIWWDDEKYYNSALKSRLTISKATSKNQVFLKIANVDTADTATYYCARISNYGSNYWYFNVWGTGTTVTVSS
VL: QVVLTQSPALMSASPGEKVTMTCSAGSSVSYMYWYQQKPGSSPRVLIYDTSNLASGVPARFTGSGSGTSYSLTISRMEAEDAATYYCQQWNSYPLTFGAGTKLELK
B2: antibody 34 (antibody, V domains shown)
VH: QVTLKESGPGILQPSQTLSLTCSFSGFSLSTFSLGVGWIRQSSGKGLEWLAHIWWDDEKYYNPALKSRLTISKDTSKNQVFLKIANVDAADTATYYCARAYYSKSYYALDYWGQGTSVTVSS
VL: DIQMTQSPSSLSASLGERVSLTCRASQEISGYLSWLQQKPDGTIKRLIYAASTLDSGVPKRFSGSRSGSDYSLAISSLESEDFADYYCLQYANFPFTFGSGTKLEIK
B3: antibody 42 (antibody, V domains shown)
VH: B1 VH with F24L, M34R, S63P, A74D, K83R, S101Q, N111D
VL: LIVLTQSPAIMSASPGEKVTMTCGATSRISYMFWYQQKPGSSPRVLIYDTSNLASGVPVRFSGSGSGTSYSLTISRVEAEDVATYYCQQWNSYPLTFGAGTKLELK
B4: antibody 44 (antibody, V domains shown)
VH: B1 VH with G44E, E58D, S63P, A74D, V80I, A85T, D91E, A98S, S101G, N111D
VL: B1 VL with V2I, L10V, S24T, G26S, S30Y, K38T, V45L, A59V, T62S, S92T
B5: antibody 48 (antibody, V domains shown)
VH: QVQLQQSGTELVRPGTSVKVSCKASGYAFTNYLIEWVKQRPGQGLEWIGVINPGSGFTKYNEKFKGKATLTADKSSSTVYMHLSSLTSEDSAVYFCARGLYRAMDYWGQGTSVTVSS
VL: DIQMTQSPASQSASLGESVTITCLASQTIATWLAWYQQKPGKSPQLLIYGATTLADGVPSRFSGGGSGTKFSFKISSLQAEDFVSYYCQQLYSTPYTFGGGTKLEIK

Legend:
hiR2-FL-K536A-T7 (human) = target: T1, hiR2-FL-K536A-T7 (human) (UniProt Q6PJF5); test: FACS on MEF-DKO cells expressing the variant, 3 µg/ml antibody
T1 sequence: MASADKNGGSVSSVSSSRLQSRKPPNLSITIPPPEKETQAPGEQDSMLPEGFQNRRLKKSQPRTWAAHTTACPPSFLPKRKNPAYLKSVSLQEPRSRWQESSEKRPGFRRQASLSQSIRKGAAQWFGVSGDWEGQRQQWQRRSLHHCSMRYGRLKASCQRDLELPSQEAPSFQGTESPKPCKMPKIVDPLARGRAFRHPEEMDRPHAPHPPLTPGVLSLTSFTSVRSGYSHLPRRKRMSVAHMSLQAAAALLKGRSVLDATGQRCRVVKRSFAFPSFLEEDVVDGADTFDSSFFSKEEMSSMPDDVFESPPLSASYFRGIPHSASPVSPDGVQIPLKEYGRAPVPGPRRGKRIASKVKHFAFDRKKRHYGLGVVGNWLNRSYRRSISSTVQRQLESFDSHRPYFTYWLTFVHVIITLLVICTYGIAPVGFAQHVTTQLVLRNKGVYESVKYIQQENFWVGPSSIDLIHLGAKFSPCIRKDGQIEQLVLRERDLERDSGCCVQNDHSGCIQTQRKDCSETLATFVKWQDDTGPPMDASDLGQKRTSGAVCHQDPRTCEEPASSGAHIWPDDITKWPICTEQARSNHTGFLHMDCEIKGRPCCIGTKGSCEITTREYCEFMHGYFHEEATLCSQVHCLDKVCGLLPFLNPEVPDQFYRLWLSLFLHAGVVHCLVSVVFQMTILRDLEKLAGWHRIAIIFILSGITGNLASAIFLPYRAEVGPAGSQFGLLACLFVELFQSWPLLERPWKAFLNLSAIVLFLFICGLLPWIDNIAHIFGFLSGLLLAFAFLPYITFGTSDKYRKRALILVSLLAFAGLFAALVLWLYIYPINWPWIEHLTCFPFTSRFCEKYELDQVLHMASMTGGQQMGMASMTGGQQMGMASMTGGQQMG

hiR2-FL-H505R-T7 (human) = target: T2, hiR2-FL-H505R-T7 (human) (UniProt Q6PJF5); test: FACS, MEF-DKO cells, 3 µg/ml
T2 sequence: T1 sequence with H505R, A536K

Row | Binder | loss of binding vs wild type (hiR2-FL-K536A-T7 (human)) | loss of binding vs wild type (hiR2-FL-H505R-T7 (human))
1 | B1 | > 95% | 
2 | B2 | > 95% | 
3 | B3 | > 95% | 
4 | B4 | > 95% | 
5 | B5 |  | > 60%
